The source of these data is patent US20230272056A1 (Merck Sharp & Dohme, published 2023).

Changes are numbered by the printed parent chain. Numbers in names are those of the source.

For orientation: Kd means the equilibrium constant for the complex coming apart. What is called koff is the rate constant with which the complex falls apart. For orientation: kon means a measure of how fast the partners come together. Low values mean slow association, high ones fast association.

The chains are these.
B1: 65BJN (Fab, V domains shown)
VH: EVQLVQSGAEVKKPGASVKVSCKASGYTFTSYDLHWVRQAPGQGLEWMGRIDPQSGGIKYAQKFQGRATLTVDTSTSTAYMELSRLRSDDTAVYYCARYDQGGYFDVWGQGTLVTVSS
VL: DIQMTQSPSSLSASVGDRVTITCRASQDIYYYLNWYQQKPGKAVKLLIYYTSRLHSGVPSRFSGSGSGTDYTLTISSLQPEDFATYFCQQGDTLPWTFGQGTKLEIKR
notes: also called VH W33D M34L W99Y Y101Q / VL T30Y N31Y (65BJN)
B2: 72BJN (Fab, V domains shown)
VH: B1 VH with S31Q, L34M, Q101Y
VL: B1 VL with Y31N, R53I
notes: also called VH S31Q W33D W99Y / VL T30Y R53I (72BJN)
B3: 80BJN (Fab, V domains shown)
VH: B1 VH with L34M, K59R, Y99W, Q101Y, Y104Q
VL: B1 VL with Y31N, R53I
notes: also called VH W33D K59R Y104Q / VL T30Y R53I (80BJN)
B4: 75BJN (Fab, V domains shown)
VH: B1 VH with S31K, L34M, S55D, I58F, Y99W, Q101Y
VL: B1 VL with Y30F, Y31N, R53Y, T93E
notes: Label says VL T30Y but the printed LCDR1 reads F at 30; also called VH S31K W33D S55D I58F / VL T30Y R53Y T93E (75BJN)
B5: 81BJN (Fab, V domains shown)
VH: B1 VH with S31E, L34M, K59R, Y99W, Q101Y, Y104Q, V107A
VL: B1 VL with Y31N, R53V
notes: also called VH S31E W33D K59R Y104Q V107A / VL T30Y R53V (81BJN)
B6: 77BJN (Fab, V domains shown)
VH: B1 VH with L34M, I58V, Y99W, Q101Y
VL: B1 VL with Y31N, R53V, T93E
notes: also called VH W33D I58V / VL T30Y R53V T93E (77BJN)
B7: 82BJN (Fab, V domains shown)
VH: B1 VH with D33Y, L34M, H35N, I58V, Y99W, D100H, Q101Y, Y104Q
VL: B1 VL with Y31N, R53G
notes: also called VH W33Y H35N I58V D100H Y104Q / VL T30Y R53G (82BJN)
B8: 67BJN (Fab, V domains shown)
VH: B1 VH with L34M, Y99W, Q101Y
VL: B1 VL with Y31N, R53V
notes: also called VH W33D / VL T30Y R53V (67BJN)
B9: 78BJN (Fab, V domains shown)
VH: B1 VH with L34M, K59R, Y99W, Q101Y
VL: B1 VL with Y31N, R53N, T93E
notes: also called VH W33D K59R / VL T30Y R53N T93E (78BJN)
B10: 74BJN (Fab, V domains shown)
VH: B1 VH with S31Y, Y99W, Q101Y
VL: B1 VL with Y31N, T93D, L94I
notes: also called VH S31Y W33D M34L / VL T30Y T93D L94I (74BJN)
B11: 71BJN (Fab, V domains shown)
VH: B1 VH with L34M, S55T, G57D, Y99W, Q101Y, Y104Q
VL: B1 VL with Y31N, R53G
notes: also called VH W33D S55T G57D Y104Q / VL T30Y R53G (71BJN)
B12: 66BJN (Fab, V domains shown)
VH: B1 VH with L34M, S55T, Y99W, Q101H
VL: B1 VL with Y31N, L94Q
notes: also called VH W33D S55T Y101H / VL T30Y L94Q (66BJN)
B13: 73BJN (Fab, V domains shown)
VH: B1 VH with L34M, Y99W, Q101Y
VL: B1 VL with Y31N
notes: also called VH W33D / VL T30Y (73BJN)
B14: 68BJN (Fab, V domains shown)
VH: B1 VH with D33W, L34M, H35Q, S55D, G57D, Q101Y
VL: B1 VL with Y31N, R53V
notes: also called VH H35Q S55D S57D W99Y / VL T30Y R53V (68BJN)
B15: 79BJN (Fab, V domains shown)
VH: B1 VH with L34M, S55D, G57D, I58V, Y99W, Q101Y
VL: B1 VL with Y31N, R53G, T93E
notes: also called VH W33D S55D S57D I58V / VL T30Y R53G T93E (79BJN)
B16: 76BJN (Fab, V domains shown)
VH: B1 VH with S31Y, L34M, Q54Y, S55D, G57D, Y99W, Q101Y
VL: B1 VL with Y31N, R53L, T93E
notes: also called VH S31Y W33D Q54Y S55D G57D / VL T30Y R53L T93E (76BJN)

In one experiment the target is T1, human LAP-TGFB2 Fc fusion (human).
T1 construct: also called human LAP-TGFβ2; LAP-TGFβ isoform 2
T1 sequence (chain, as listed by the source limits assumed): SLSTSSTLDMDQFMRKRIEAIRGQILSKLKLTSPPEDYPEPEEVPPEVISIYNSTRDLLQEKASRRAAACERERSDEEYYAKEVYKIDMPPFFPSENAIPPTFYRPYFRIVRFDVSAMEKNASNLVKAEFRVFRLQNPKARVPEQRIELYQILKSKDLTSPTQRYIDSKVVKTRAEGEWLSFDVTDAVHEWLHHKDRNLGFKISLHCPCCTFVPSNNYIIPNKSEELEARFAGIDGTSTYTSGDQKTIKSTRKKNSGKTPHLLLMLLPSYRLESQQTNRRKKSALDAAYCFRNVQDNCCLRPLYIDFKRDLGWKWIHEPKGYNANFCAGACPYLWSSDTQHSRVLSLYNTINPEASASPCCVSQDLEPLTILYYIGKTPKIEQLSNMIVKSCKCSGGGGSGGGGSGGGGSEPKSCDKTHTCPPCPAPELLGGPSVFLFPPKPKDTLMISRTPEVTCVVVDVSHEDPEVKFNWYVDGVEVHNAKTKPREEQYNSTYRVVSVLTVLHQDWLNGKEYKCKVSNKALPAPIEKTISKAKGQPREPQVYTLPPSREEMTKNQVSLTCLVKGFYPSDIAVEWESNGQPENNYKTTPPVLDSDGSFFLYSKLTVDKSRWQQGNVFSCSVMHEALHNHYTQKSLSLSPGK
The experiment is described as follows: SPR. The source says: (§1) This Example describes the isoform specificity of the yeast display mutants to bind to human LAP-TGFβ isoforms 1, 2, and 3 using surface plasmon resonance. A Series S CM4 sensor chip (GE Healthcare, catalog BR100534) was immobilized with an anti-human Fc capture antibody following the kit protocol (GE Healthcare, catalog BR100839) on a Biacore T200 instrument with 1× HBS-EP+ (Teknova, catalog H8022). […] Binding specificity experiments between human LAP-TGFβ isoforms 2 and 3 and yeast display mutants were performed in 1× HBS-EP+ with 0.1 mg/mL BSA at 25° C. Approximately 20-40 RU amounts of human LAP-TGFβ2 and 3 were captured to the anti-human Fc surface followed by injection of 1000 nM Fab including a negative control 0 nM Fab. The binding data were double referenced by subtraction of signal from a reference (capture surface only) flow cell and the negative control 0 nM Fab injection. Binding rate constants were determined by fitting the data with a 1:1 binding model (GE Healthcare Biacore T200 Evaluation software 3.0).
As to B1, the binding result is listed as “no binding (tested: 1000 nM Fab)”.
On the same count and under the same terms, the entry for B2 is “no binding (tested: 1000 nM Fab)”; for B3 it is “no binding (tested: 1000 nM Fab)”; for B4 it is “no binding (tested: 1000 nM Fab)”.
Still for that read-out and setting: the entry for B5 is “no binding (tested: 1000 nM Fab)”.
Still for that read-out and setting: the entry for B6 is “no binding (tested: 1000 nM Fab)”; for B7 it is “no binding (tested: 1000 nM Fab)”; for B8 it is “no binding (tested: 1000 nM Fab)”.
For B9, the binding result is “no binding (tested: 1000 nM Fab)”.
In the case of B10, the binding result was “no binding (tested: 1000 nM Fab)”.
With B11, the binding result is “no binding (tested: 1000 nM Fab)”.
For the molecule B12, the binding result was “no binding (tested: 1000 nM Fab)”.
The same measure, in the same setting: in the case of B13 it was “no binding (tested: 1000 nM Fab)”; in that of B14, “no binding (tested: 1000 nM Fab)”.
Same read-out and setting: the entry for B15 is “no binding (tested: 1000 nM Fab)”; for B16 it is “no binding (tested: 1000 nM Fab)”.

For the next experiment, the target named is T2, human LAP-TGFB3 Fc fusion (human).
T2 construct: also called human LAP-TGFβ3; LAP-TGFβ isoform 3
T2 sequence (chain, as listed by the source limits assumed): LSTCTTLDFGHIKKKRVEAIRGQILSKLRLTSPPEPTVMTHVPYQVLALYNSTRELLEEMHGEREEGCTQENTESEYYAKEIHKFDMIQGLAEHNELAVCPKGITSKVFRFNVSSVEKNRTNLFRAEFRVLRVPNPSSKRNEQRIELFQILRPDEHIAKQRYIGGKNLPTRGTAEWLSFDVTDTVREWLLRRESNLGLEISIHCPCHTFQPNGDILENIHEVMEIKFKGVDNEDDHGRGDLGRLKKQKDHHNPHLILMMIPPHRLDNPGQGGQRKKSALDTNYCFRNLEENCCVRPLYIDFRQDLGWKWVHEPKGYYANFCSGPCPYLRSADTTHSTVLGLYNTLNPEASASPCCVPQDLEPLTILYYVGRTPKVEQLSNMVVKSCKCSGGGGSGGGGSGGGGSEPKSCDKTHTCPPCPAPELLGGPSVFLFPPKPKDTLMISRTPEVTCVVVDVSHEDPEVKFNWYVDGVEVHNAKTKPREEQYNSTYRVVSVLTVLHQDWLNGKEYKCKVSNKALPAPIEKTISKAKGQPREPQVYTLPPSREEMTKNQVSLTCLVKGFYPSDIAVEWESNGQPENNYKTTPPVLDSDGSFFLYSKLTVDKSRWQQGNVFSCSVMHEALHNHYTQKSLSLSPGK
The experiment is described as follows: SPR.
Text: as §1
Background: SPR reads the build-up and loss of mass on a sensor chip optically.
For the molecule B1, the binding result is listed as “no binding (tested: 1000 nM Fab)”.
On the same count and under the same terms, in the case of B2 it was “no binding (tested: 1000 nM Fab)”; in that of B3, “no binding (tested: 1000 nM Fab)”; in that of B4, “no binding (tested: 1000 nM Fab)”.
For the molecule B5, the binding result is given as “no binding (tested: 1000 nM Fab)”.
Same read-out and setting: the entry for B6 is “no binding (tested: 1000 nM Fab)”.
In the case of B7, the binding result is reported as “no binding (tested: 1000 nM Fab)”.
Still for that read-out and setting: the entry for B8 is “no binding (tested: 1000 nM Fab)”.
On the same count and under the same terms, in the case of B9 it was “no binding (tested: 1000 nM Fab)”; in that of B10, “no binding (tested: 1000 nM Fab)”.
Still for that read-out and setting: the entry for B11 is “no binding (tested: 1000 nM Fab)”.
Regarding B12, the binding result is recorded as “no binding (tested: 1000 nM Fab)”.
On the same count and under the same terms, in the case of B13 it was “no binding (tested: 1000 nM Fab)”; in that of B14, “no binding (tested: 1000 nM Fab)”.
Same read-out and setting: the entry for B15 is “no binding (tested: 1000 nM Fab)”; for B16 it is “no binding (tested: 1000 nM Fab)”.

For another experiment, the target named is T3, human LAP-TGFB1 Fc fusion (human).
T3 construct: also called human LAP-TGFβ1-Fc; human LAP-TGFβ-Fc isoform 1
T3 sequence (chain, as listed by the source limits assumed): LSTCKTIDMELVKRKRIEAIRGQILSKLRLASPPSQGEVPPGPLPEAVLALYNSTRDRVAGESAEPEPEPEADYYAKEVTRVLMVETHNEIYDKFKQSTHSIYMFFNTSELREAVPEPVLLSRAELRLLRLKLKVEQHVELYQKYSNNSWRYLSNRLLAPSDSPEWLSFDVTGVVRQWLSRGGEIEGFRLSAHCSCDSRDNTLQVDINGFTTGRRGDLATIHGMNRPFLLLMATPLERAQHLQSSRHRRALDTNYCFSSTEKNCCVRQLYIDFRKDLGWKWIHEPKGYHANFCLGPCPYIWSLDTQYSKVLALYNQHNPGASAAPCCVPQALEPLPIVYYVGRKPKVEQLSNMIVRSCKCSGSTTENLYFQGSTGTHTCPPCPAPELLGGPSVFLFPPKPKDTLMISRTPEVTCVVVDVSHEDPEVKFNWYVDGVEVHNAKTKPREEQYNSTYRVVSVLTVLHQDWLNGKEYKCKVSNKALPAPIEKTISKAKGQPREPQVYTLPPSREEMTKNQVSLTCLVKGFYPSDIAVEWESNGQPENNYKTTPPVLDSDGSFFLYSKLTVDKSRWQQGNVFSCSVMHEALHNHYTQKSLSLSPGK
Description: SPR, antigen-Fc captured, Fab analyte.
Text: as §1
Take B1: the “Fold improvement in KD” value was 10 fold, binding was put at a Kd of 8.12 nM, the koff is 0.0238 s⁻¹ and the kon was determined as 2.94e+06 M⁻¹ s⁻¹.
The like results for B2 were, in that order, 130 fold, 0.615 nM, 0.00298 s⁻¹ and 4.85e+06 M⁻¹ s⁻¹.
The like results for B3 were, in that order, 13200 fold, 0.00607 nM, 2.52e-05 s⁻¹ and 4.15e+06 M⁻¹ s⁻¹.
For the molecule B4, the “Fold improvement in KD” value was 1180 fold.
For the molecule B5, the “Fold improvement in KD” value amounted to 12700 fold, the Kd turned out to be 0.00629 nM, the koff worked out at 2.56e-05 s⁻¹ and the kon was found to be 4.08e+06 M⁻¹ s⁻¹.
The like results for B6 were, in that order, 1540 fold, 0.0517 nM, 0.00027 s⁻¹ and 5.22e+06 M⁻¹ s⁻¹.
The like results for B7 were, in that order, 8610 fold, 0.00928 nM, 2.6e-05 s⁻¹ and 2.81e+06 M⁻¹ s⁻¹.
The like results for B8 were, in that order, 512 fold, 0.156 nM, 0.000762 s⁻¹ and 4.87e+06 M⁻¹ s⁻¹.
B9: the “Fold improvement in KD” value came out at 1120 fold, the Kd stood at 0.0713 nM, the koff was 0.000393 s⁻¹ and the kon was 5.52e+06 M⁻¹ s⁻¹.
The like results for B10 were, in that order, 196 fold, 0.408 nM, 0.00181 s⁻¹ and 4.45e+06 M⁻¹ s⁻¹.
The like results for B11 were, in that order, 3200 fold, 0.0251 nM, 6.8e-05 s⁻¹ and 2.71e+06 M⁻¹ s⁻¹.
The like results for B12 were, in that order, 13 fold, 6.21 nM, 0.0131 s⁻¹ and 2.11e+06 M⁻¹ s⁻¹.
As to B13, the “Fold improvement in KD” value was determined as 133 fold, the Kd is 0.601 nM, the koff turned out to be 0.0031 s⁻¹ and the kon turned out to be 5.15e+06 M⁻¹ s⁻¹.
The like results for B14 were, in that order, 4200 fold, 0.0191 nM, 8.34e-05 s⁻¹ and 4.36e+06 M⁻¹ s⁻¹.
For B15, the “Fold improvement in KD” value was found to be 3630 fold, the Kd is 0.022 nM, the koff is 0.000128 s⁻¹ and the kon is 5.84e+06 M⁻¹ s⁻¹.
As to B16, the “Fold improvement in KD” value was 768 fold, binding was put at a Kd of 0.104 nM, the koff was found to be 0.000186 s⁻¹ and the association rate constant (kon) came to 1.8e+06 M⁻¹ s⁻¹.
